Columns and labels:
[1] = target: DNAX Leukocyte Associated Immunoglobulin-like Receptor (DLAIR-1) (human) (UniProt Q6GTX8); experiment: flow cytometry (FACScan) on CEM T cell tumor cells, PE goat-anti-mouse-IgG second step
[2] = target: DNAX Leukocyte Associated Immunoglobulin-like Receptor (DLAIR-1) (human) (UniProt Q6GTX8); experiment: flow cytometry (FACScan) on Peer T cell tumor cells, PE goat-anti-mouse-IgG second step
[3] = target: DNAX Leukocyte Associated Immunoglobulin-like Receptor (DLAIR-1) (human) (UniProt Q6GTX8); experiment: flow cytometry (FACScan) on Molt4 T cell tumor cells, PE goat-anti-mouse-IgG second step
[4] = target: DNAX Leukocyte Associated Immunoglobulin-like Receptor (DLAIR-1) (human) (UniProt Q6GTX8); experiment: flow cytometry (FACScan) on U937 myeloid tumor cells, PE goat-anti-mouse-IgG second step
[5] = target: DNAX Leukocyte Associated Immunoglobulin-like Receptor (DLAIR-1) (human) (UniProt Q6GTX8); experiment: flow cytometry (FACScan) on Jurkat T cell tumor cells, PE goat-anti-mouse-IgG second step
[6] = target: DNAX Leukocyte Associated Immunoglobulin-like Receptor (DLAIR-1) (human) (UniProt Q6GTX8); experiment: flow cytometry (FACScan) on HL60 promyeloid tumor cells, PE goat-anti-mouse-IgG second step
[7] = target: DNAX Leukocyte Associated Immunoglobulin-like Receptor (DLAIR-1) (human) (UniProt Q6GTX8); experiment: flow cytometry (FACScan) on HUT78 T cell tumor cells, PE goat-anti-mouse-IgG second step

| mean fluorescence intensity [1] | mean fluorescence intensity [2] | mean fluorescence intensity [3] | mean fluorescence intensity [4] | mean fluorescence intensity [5] | mean fluorescence intensity [6] | mean fluorescence intensity [7] | Substance |
| --- | --- | --- | --- | --- | --- | --- | --- |
| < 5 | < 5 | < 5 | < 5 | < 5 | < 5 |  | control IgG1 (antibody) |
| 92.7 | 29.1 | 30.7 | 49.5 | 47.1 | 46.9 | 25.8 | DX26 monoclonal antibody |
